Source: patent US20180258172A1 (ZymoGenetics, published 2018)

B1: NKp30/VASP (receptor)
chain: LWVSQPPEIRTLEGSSAFLPCSFNASQGRLAIGSVTWFRDEVVPGKEVRNGTPEFRGRLAPLASSRFLHDHQAELHIRDVRGHDASIYVCRVEVLGLGVGTGNGTRLVVEKEHPEPRSGSGGSGGSDLQRVKQELLEEVKKELQKVKEEIIEAFVQELRGSGGHHHHHH
notes: no limits or signal peptide residues stated; also called soluble NKp30/VASP A1683F; NKp30/VASP-A647
B2: hzB7H6/VASP-His6 (ligand)
chain: DLKVEMMAGGTQITPLNDNVTIFCNIFYSQPLNITSMGITWFWKSLTFDKEVKVFEFFGDHQEAFRPGAIVSPWRLKSGDASLRLPGIQLEEAGEYRCEVVVTPLKAQGTVQLEVVASPASRLLLDQVGMKENEDKYMCESSGFYPEAINITWEKQTQKFPHPIEISEDVITGPTIKNMDGTFNVTSCLKLNSSQEDPGTVYQCVVRHASLHTPLRSNFTLTAARHSLSETEKTDNFSIHWWPEPRSGSGGSGGSDLQRVKQELLEEVKKELQKVKEEIIEAFVQELRGSGGHHHHHH
notes: also called human zB7H6/VASP; zB7H6 C(VASP)H6

Legend:
[1] = biological target: T1, human zB7H6 (full-length, on cells) (human, UniProt Q68D85 25-454); experiment: competition FACS on K562 cells against NKp30/mFc2, 100-fold mass excess
T1 construct: also called hzB7H6; hypothetical protein DKFZP686I21167
T1 sequence: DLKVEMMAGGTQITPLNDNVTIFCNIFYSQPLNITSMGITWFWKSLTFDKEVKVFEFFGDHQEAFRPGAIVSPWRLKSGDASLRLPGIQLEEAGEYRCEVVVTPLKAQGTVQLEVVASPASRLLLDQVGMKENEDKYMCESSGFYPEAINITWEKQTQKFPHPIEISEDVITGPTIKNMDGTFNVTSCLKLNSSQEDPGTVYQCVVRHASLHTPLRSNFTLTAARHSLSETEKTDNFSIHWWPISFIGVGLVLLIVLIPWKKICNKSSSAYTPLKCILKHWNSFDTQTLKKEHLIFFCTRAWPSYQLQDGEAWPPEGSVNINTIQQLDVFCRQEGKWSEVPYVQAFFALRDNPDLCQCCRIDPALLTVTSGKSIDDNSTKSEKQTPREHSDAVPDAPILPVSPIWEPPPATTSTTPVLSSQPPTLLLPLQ
Method: K562 cells were probed by FACS with a soluble form of NKp30 (NKp30/mFc2 (SEQ ID NO:8), containing the extracellular domain of NKp30 and a murine Fc fragment). K562 cells were resuspended in PBS/2% FBS at a concentration of 1.6×10⁶ cells/ml (160,000 cells/sample). 100 μl samples were aliquoted and 1 μl of whole human IgG (Jackson #009-000-003) added to each. NKp30/mFc2 probe was added at a concentration of 2 μg/ml together with 10 μg/ml Heparin and 100-fold mass excess of a VASP protein (NKp30/VASP or a control VASP protein, human zB7R1/VASP (SEQ ID NO:12) or B7-DC/VASP (SEQ ID NO:13)). Cells were incubated for 1 hour on ice and washed with 2 ml cold PBS. Washed cells were resuspended in 100 μl of PBS/2% FBS with 1 μl PE anti-mIgG (Jackson 115-116-071) and incubated for 30 minutes on ice. Cells were then washed twice with 2 ml cold PBS, resuspended in 500 μl of PBS, and analyzed for PE staining on a FACSCalibur.

NKp30/mFc2 = biological target: T2, NKp30/mFc2; experiment: competition FACS: soluble zB7H6/VASP at 100-fold mass excess competed NKp30/mFc2-biotin binding to K562, 293F and P815 zB7H6 cells
T2 construct: also called soluble NKp30 fusion protein; NKp30/mFc2-biotin
T2 chain: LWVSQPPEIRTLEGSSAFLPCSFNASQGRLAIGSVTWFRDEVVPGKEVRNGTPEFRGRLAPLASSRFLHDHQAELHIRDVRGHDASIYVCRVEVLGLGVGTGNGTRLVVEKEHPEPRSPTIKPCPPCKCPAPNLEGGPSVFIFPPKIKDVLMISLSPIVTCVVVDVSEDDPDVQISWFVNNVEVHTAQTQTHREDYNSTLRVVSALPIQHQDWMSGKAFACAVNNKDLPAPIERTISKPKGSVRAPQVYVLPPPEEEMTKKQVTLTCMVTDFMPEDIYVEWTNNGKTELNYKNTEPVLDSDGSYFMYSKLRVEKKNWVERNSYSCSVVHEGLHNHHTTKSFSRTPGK
Method: Cells were resuspended in PBS/2% FBS at a concentration of 1.5×10⁶ cells/ml (150,000 cells/sample). 100 μl samples were aliquoted with 100 μg/ml of whole human IgG (Jackson #009-000-003) included for Fc receptor blocking. NKp30/mFc2-biotin probe was added at a concentration of 2 μg/ml and 100-fold mass excess of a VASP protein (NKp30/VASP or human zB7H6/VASP) or a control VASP protein (B7H3/VASP). Cells were incubated for 1 hour on ice and washed with 2 ml cold PBS. Washed cells were resuspended in 100 μl of PBS/2% FBS with streptavidin-PE (BD:554061) at 1 μg/ml and incubated for 15 minutes on ice. Cells were then washed with 1 ml cold PBS, resuspended in 250 μl of PBS, and analyzed for PE staining on a FACSCalibur.

Binder	binding result [1]	binding result (NKp30/mFc2)
B1	binds	
B2		binds
